The chains are these.
B1: non-phosphorylated Cdc37 (natural protein)
chain: MVDYSVWDHIEVSDDEDETHPNIDTASLFRWRHQARVERMEQFQKEKEELDRGCRECKRKVAECQRKLKELEVAEGGKAELERLQAEAQQLRKEERSWEQKLEEMRKKEKSMPWNVDTLSKDGFSKSMVNTKPEKTEEDSEEVREQKHKTFVEKYEKQIKHFGMLRRWDDSQKYLSDNVHLVCEETANYLVIWCIDLEVEEKCALMEQVAHQTIVMQFILELAKSLKVDPRACFRQFFTKIKTADRQYMEGFNDELEAFKERVRGRAKLRIEKAMKEYEEEERKKRLGPGGLDPVEVYESLPEELQKCFDVKDVQMLQDAISKMDPTDAKYHMQRCIDSGLWVPNSKASEAKEGEEAGPGDPLLEAVPKTGDEKDVSV
notes: human Hsp90 co-chaperone Cdc37, expressed from pET28 (gift of C. Vaughan; Vaughan et al., 2006), not phosphorylated; Used in ITC and in the auto-phosphorylation assay and in the comparison with the phosphorylated form; No tag removal step is described; also called CDC37^Apo; Cdc37^Apo; source: E. coli C41 (DE3), purified (HisTrap, HiTrap Q, Superdex 200)
B3: FGFR3 kinase domain variant I538F (domain or fragment)
chain: SELELPADPKWELSRARLTLGKPLGEGCFGQVVMAEAIGIDKDRAAKPVTVAVKMLKDDATDKDLSDLVSEMEMMKMIGKHKNFINLLGACTQGGPLYVLVEYAAKGNLREFLRARRPPGLDYSFDTCKPPEEQLTFKDLVSCAYQVARGMEYLASQKCIHRDLAARNVLVTEDNVMKIADFGLARDVHNLDYYKKTTNGRLPVKWMAPEALFDRVYTHQSDVWSFGVLLWEIFTLGGSPYPGIPVEELFKLLKEGHRMDKPANCTHDLYMIMRECWHAAPSQRPTFKQLVEDLDRVLTVTSTDEYLDLSAPFE
notes: FGFR3 kinase domain, amino acids 455-768 of human FGFR3, disease-linked (cancer) mutation I538F; pJ821 construct; 15N labelled for NMR; also called FGFR3^I538F; GFR3^I538F; source: E. coli C41 (DE3), co-expressed with lambda phosphatase, purified (HisTrap, HiTrap Q, Superdex 200); not shown: His-SUMO, N-terminal, cleaved

Common to all, as to settings: both partners purified
Test [1] deals with B3. As to the kind of experiment: ITC; kinase domain in the cell (FGFR3 WT 19.4 μM, FGFR3 I538F 16.9 μM), Cdc37 Apo 211.7 μM in the syringe; 25 mM Tris.Cl, 50 mM NaCl, 5 mM MgCl2, 0.1 mM TCEP, pH 7.5, 20 °C; single site model.
The next test deals with T1, Hsp90α (human, UniProt P07900 1-732).
T1 construct: human Hsp90α, expressed from pRSET (gift of C. Vaughan; Vaughan et al., 2006); Used at a 2:1:1 ratio to Cdc37 and kinase; source: E. coli C41 (DE3), purified (HisTrap, HiTrap Q, Superdex 200)
The experiment in a line: SEC; ternary mixture: 15 μM kinase, 15 μM Cdc37, 30 μM Hsp90α (1:1:2), 15 min at 4 °C; Superdex 200 Increase, 25 mM Tris.Cl, 150 mM NaCl, 1 mM TCEP, pH 8.0, 4 °C; fractions by SDS-PAGE and ELISA. (In gel filtration, larger molecules generally elute earlier.)

The test “non-phosphorylated Cdc37” deals with B1. As to the kind of experiment: ITC; kinase domain in the cell (FGFR3 WT 19.4 μM, FGFR3 I538F 16.9 μM), Cdc37 Apo 211.7 μM in the syringe; 25 mM Tris.Cl, 50 mM NaCl, 5 mM MgCl2, 0.1 mM TCEP, pH 7.5, 20 °C; single site model. (Isothermal titration calorimetry measures the heat released or taken up as one component is titrated into another.)

For B1, in test [1], the stoichiometry N (usually the number of molecules, sites or subunits per partner or assembly) amounted to 1.

B2: FGFR3 kinase domain variant E466K (domain or fragment)
chain: SELELPADPKWKLSRARLTLGKPLGEGCFGQVVMAEAIGIDKDRAAKPVTVAVKMLKDDATDKDLSDLVSEMEMMKMIGKHKNIINLLGACTQGGPLYVLVEYAAKGNLREFLRARRPPGLDYSFDTCKPPEEQLTFKDLVSCAYQVARGMEYLASQKCIHRDLAARNVLVTEDNVMKIADFGLARDVHNLDYYKKTTNGRLPVKWMAPEALFDRVYTHQSDVWSFGVLLWEIFTLGGSPYPGIPVEELFKLLKEGHRMDKPANCTHDLYMIMRECWHAAPSQRPTFKQLVEDLDRVLTVTSTDEYLDLSAPFE
notes: FGFR3 kinase domain, amino acids 455-768 of human FGFR3, disease-linked (cancer) mutation E466K; also called FGFR3^E466K; source: E. coli C41 (DE3), co-expressed with lambda phosphatase, purified (HisTrap, HiTrap Q, Superdex 200)
Consider B2, for which the binding result in the test with Hsp90α is recorded as “binds”.

Turning to B3, the equilibrium dissociation constant (Kd) (usually the equilibrium constant for the complex coming apart) with non-phosphorylated Cdc37 came out at 1800 nM. Moreover, the binding result with Hsp90α is recorded as “binds”.

B4: FGFR3 kinase domain variant N540K (domain or fragment)
chain: SELELPADPKWELSRARLTLGKPLGEGCFGQVVMAEAIGIDKDRAAKPVTVAVKMLKDDATDKDLSDLVSEMEMMKMIGKHKNIIKLLGACTQGGPLYVLVEYAAKGNLREFLRARRPPGLDYSFDTCKPPEEQLTFKDLVSCAYQVARGMEYLASQKCIHRDLAARNVLVTEDNVMKIADFGLARDVHNLDYYKKTTNGRLPVKWMAPEALFDRVYTHQSDVWSFGVLLWEIFTLGGSPYPGIPVEELFKLLKEGHRMDKPANCTHDLYMIMRECWHAAPSQRPTFKQLVEDLDRVLTVTSTDEYLDLSAPFE
notes: FGFR3 kinase domain, amino acids 455-768 of human FGFR3, disease-linked mutation N540K; pJ821 construct; also called FGFR3^N540K; source: E. coli C41 (DE3), co-expressed with lambda phosphatase, purified (HisTrap, HiTrap Q, Superdex 200); not shown: His-SUMO, N-terminal, cleaved
Take B4: in the test with Hsp90α, the binding result is “binds”.

The values are drawn from paper PMC5846801, “Disease Variants of FGFR3 Reveal Molecular Basis for the Recognition and Additional Roles for Cdc37 in Hsp90 Chaperone System” (Structure(London, England:1993), 2018).
